IntAct's records for PubMed 29039417

B1: Protein PTHB1 (Homo sapiens), Q3SYG4 (parent)
chain: MSLFKARDWWSTILGDKEEFDQGCLCLANVDNSGNGQDKIIVGSFMGYLRIFSPHPAKTGDGAQAEDLLLEVDLRDPVLQVEVGKFVSGTEMLHLAVLHSRKLCVYSVSGTLGNVEHGNQCQMKLMYEHNLQRTACNMTYGSFGGVKGRDLICIQSMDGMLMVFEQESYAFGRFLPGFLLPGPLAYSSRTDSFLTVSSCQQVESYKYQVLAFATDADKRQETEQQKLGSGKRLVVDWTLNIGEQALDICIVSFNQSASSVFVLGERNFFCLKDNGQIRFMKKLDWSPSCFLPYCSVSEGTINTLIGNHNNMLHIYQDVTLKWATQLPHIPVAVRVGCLHDLKGVIVTLSDDGHLQCSYLGTDPSLFQAPNVQSRELNYDELDVEMKELQKIIKDVNKSQGVWPMTEREDDLNVSVVVSPNFDSVSQATDVEVGTDLVPSVTVKVTLQNRVILQKAKLSVYVQPPLELTCDQFTFEFMTPDLTRTVSFSVYLKRSYTPSELEGNAVVSYSRPTDRNPDGIPRVIQCKFRLPLKLICLPGQPSKTASHKITIDTNKSPVSLLSLFPGFASQSDDDQVNVMGFHFLGGARITVLASKTSQRYRIQSEQFEDLWLITNELILRLQEYFEKQGVKDFACSFSGSIPLQEYFELIDHHFELRINGEKLEELLSERAVQFRAIQRRLLARFKDKTPAPLQHLDTLLDGTYKQVIALADAVEENQGNLFQSFTRLKSATHLVILLIALWQKLSADQVAILEAAFLPLQEDTQELGWEETVDAAISHLLKTCLSKSSKEQALNLNSQLNIPKDTSQLKKHITLLCDRLSKGGRLCLSTDAAAPQTMVMPGGCTTIPESDLEERSVEQDSTELFTNHRHLTAETPRPEVSPLQGVSE
partner: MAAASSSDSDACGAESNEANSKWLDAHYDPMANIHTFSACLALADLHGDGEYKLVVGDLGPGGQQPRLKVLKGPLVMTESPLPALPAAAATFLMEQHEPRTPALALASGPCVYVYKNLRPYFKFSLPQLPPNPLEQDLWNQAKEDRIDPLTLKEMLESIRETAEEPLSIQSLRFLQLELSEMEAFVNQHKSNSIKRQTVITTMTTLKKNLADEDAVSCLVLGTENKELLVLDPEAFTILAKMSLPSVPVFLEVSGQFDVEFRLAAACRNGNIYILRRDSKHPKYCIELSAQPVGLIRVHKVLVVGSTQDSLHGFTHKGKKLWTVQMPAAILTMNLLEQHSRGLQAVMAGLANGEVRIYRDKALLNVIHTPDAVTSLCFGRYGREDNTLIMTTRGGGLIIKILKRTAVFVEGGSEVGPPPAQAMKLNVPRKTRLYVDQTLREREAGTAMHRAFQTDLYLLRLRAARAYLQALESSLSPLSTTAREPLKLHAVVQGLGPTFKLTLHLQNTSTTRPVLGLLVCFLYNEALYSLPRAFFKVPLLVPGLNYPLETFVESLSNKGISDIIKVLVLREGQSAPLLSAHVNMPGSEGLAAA

Variants of: B1
Details: with bbs1_human BBS1, Q8NFJ9

Variant | effect of a mutation on the interaction
E406A | with no effect
L695E | with no effect
K685E | with no effect
L720E | with no effect
E769K | with no effect
Q569E | with no effect
A754G | disrupting interaction strength
I601K | with no effect
E714K | with no effect
K809A | with no effect
F721A | with no effect
A504K | with no effect
E625A | with no effect
I523E | with no effect
I523A | with no effect
N614E | with no effect
Q791K | with no effect
S486A | with no effect
R483E | with no effect
P530E | with no effect
S439A | with no effect
K492A | with no effect
D422E | with no effect
S745K | with no effect

Variant | effect of a mutation on the interaction
S498A | with no effect
G884A | with no effect
R587T | disrupting interaction strength
L491E | with no effect
Q597R | disrupting interaction strength
N503K | with no effect
Y495E | with no effect
L699A | with no effect
R619E | with no effect
N576K | with no effect
N576A | with no effect
Q858E | with no effect
R679E | with no effect
L481K | with no effect
Y490A | with no effect
F582A | with no effect
F474E | with no effect
S785K | with no effect
L825K | with no effect
F636A | with no effect
H811K | with no effect
L808K | with no effect
G701A | with no effect
I707A | with no effect

Variant | effect of a mutation on the interaction
E664A | with no effect
R818E | with no effect
F646E | with no effect
L531E | with no effect
P758E | with no effect
M839E | with no effect
F756K | with no effect
F624A | with no effect
D571A | with no effect
E848A | with no effect
G584E | with no effect
G584A | with no effect
S635A | with no effect
Q693K | with no effect
Q693E | with no effect
F724E | with no effect
P497E | with no effect
T428E | with no effect
R528E | with no effect
E765A | with no effect
R678K | with no effect
R678A | with no effect
F673E | with no effect
C535E | with no effect

Variant | effect of a mutation on the interaction
L648A | with no effect
Q835A | with no effect
T836K | with no effect
N515A | with no effect
N515E | with no effect
Q574K | with no effect
Q717E | with no effect
S667A | with no effect
P511K | with no effect
T861K | with no effect
V577A | with no effect
W768K | with no effect
D573E | with no effect
D631K | with no effect
L591E | with no effect
L529E | with no effect
E408A | with no effect
L744E | with no effect
E790A | with no effect
A775E | with no effect
S423A | with no effect
V506E | with no effect
V506K | with no effect
L727A | with no effect

Variant | effect of a mutation on the interaction
L665K | with no effect
G638K | with no effect
T845E | with no effect
S729K | with no effect
L620A | with no effect
S458K | with no effect
A832K | with no effect
R868K | with no effect
E647A | with no effect
E715A | with no effect
L618E | with no effect
L618K | with no effect
I548A | with no effect
P881K | with no effect
L737A | with no effect
I550K | with no effect
H732A | with no effect
H652A | with no effect
R493A | with no effect
V856E | with no effect
Q760K | with no effect
I534K | with no effect
I534A | with no effect
L733K | with no effect

Variant | effect of a mutation on the interaction
V590A | with no effect
T552A | with no effect
D429A | with no effect
D696V | disrupting interaction strength
L819A | with no effect
T468K | with no effect
S570K | with no effect
L698K | with no effect
F476A | with no effect
D513A | with no effect
K661E | with no effect
Q643K | with no effect
A690E | with no effect
L766E | with no effect
C634A | with no effect
I617A | with no effect
V557E | with no effect
E499A | with no effect
T805K | with no effect
S797K | with no effect
S797E | with no effect
S886A | with no effect
D762E | with no effect
L666A | with no effect

Variant | effect of a mutation on the interaction
L666E | with no effect
L611K | with no effect
S561E | with no effect
I776A | with no effect
P537K | with no effect
L692E | with no effect
Q524A | with no effect
G718E | with no effect
R824E | with no effect
R824K | with no effect
Q705M | disrupting interaction strength
Q705E | with no effect
F566A | with no effect
T445A | with no effect
L465A | with no effect
L465E | with no effect
C469K | with no effect
T871K | with no effect
P464A | with no effect
R449K | with no effect
D480K | with no effect
Q602A | with no effect
V415E | with no effect
V415K | with no effect

Variant | effect of a mutation on the interaction
E604A | with no effect
L457K | with no effect
V489A | with no effect
V772K | with no effect
P802E | with no effect
T549K | with no effect
P479E | with no effect
R876K | with no effect
G538E | with no effect
R514K | with no effect
D817A | with no effect
H867K | with no effect
L560E | with no effect
L436A | with no effect
G823K | with no effect
G823A | with no effect
E654K | with no effect
